We go through three substances from publication PMC3077455.

Like-named read-outs stand apart in the source and are kept apart here.

For assay [1], the target named is Cse4 150-229 (sedimentation sample) (budding yeast) (UniProt P36012). The assay is described as follows: AUC.
The target is the same in assay [2]. The assay is described as follows: AUC. The source holds these as a separate data set.
The target in assay [3] is single chain Cse4-H4 (His6-KK-Cse4_(151–207)-LVPRGS-H4_(45–103)) (budding yeast | not stated) (UniProt P36012). The assay is described as follows: ITC. (Isothermal titration calorimetry measures the heat released or taken up as one component is titrated into another.)

Chain of Scm3 84-169 (Q12334 84-169): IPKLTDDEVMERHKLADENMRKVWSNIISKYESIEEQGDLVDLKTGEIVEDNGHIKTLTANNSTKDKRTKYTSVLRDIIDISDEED

Usually stoichiometry N stands for the number of molecules, sites or subunits per partner or assembly. “Scm3 84-169 (from UniProt Q12334 84-169) (domain or fragment)”: the stoichiometry N in assay [1] and in assay [2] was 1 in each case.
“Scm3 Ile110Asp/Ile117Asn (from UniProt Q12334 83-169) (domain or fragment)” returned a fold reduction of the binding affinity against the wild type in assay [3] of 85 fold.
In the case of “histone H4, full length (from UniProt P02309 1-103) (natural protein)”, the stoichiometry N in assay [1] and in assay [2] was 1 throughout.
